The numbers were not newly measured in publication PMC2833280, which cites them from elsewhere.

Test in all cases: kinetics
One data set has as its target Glu380 (UniProt position 380, TRWTGEFATHG).
The target in data set [1] is Lys443 (UniProt position 443, IVWRKKIGIHE). To be noted: enzyme-ATP complex and free CMPr (kcat/Km).
Data set [2] addresses Lys443 (UniProt position 443, TVNRPKLGVHE). The note with it: enzyme-substrate complexes (kcat).

As for “Carbapenam synthetase (CPS, CarA) (Pectobacterium carotovorum (printed 'Pectobacterium carotorova'; formerly Erwinia carotovora))”, the pKa (commonly the pH at which an ionisable group is half protonated) with Glu380 (enzyme-ATP complex and free CMPr (kcat/Km)) is 7.8 ± 0.1; in the data set with Glu380 (enzyme-substrate complexes (kcat)), 7.4 ± 0.1; with Lys443 [1], 10.0 ± 0.1.
“beta-Lactam synthetase (beta-LS) (Streptomyces clavuligerus (printed 'Streptomyces clavuligerous'))”: in the data set with Lys443 [2], the pKa is given as 8.07 ± 0.05.
